Laboratory results: paper PMC8497620, “Structure and inhibition of Cryptococcus neoformans sterylglucosidase to develop antifungal agents” (Nature Communications, 2021)

target: T1, C. neoformans Sgl1 (Cryptococcus neoformans var. grubii, UniProt J9W473); experiment: H/D exchange mass spectrometry mapping of disordered regions; details: H/D exchange MS of C. neoformans Sgl1; per peptide (amino acids Start-End, Sequence); Fig S2a
Method: HDX-MS reactions were performed in a similar manner as is outlined in previous publications. HDX reactions were conducted in a final reaction volume of 50 µL with a final Sgl1 concentration of 0.6 µM (30 pmol). Exchange was carried out in triplicate for a single time point (3 s at 4 °C). Hydrogen deuterium exchange was initiated by the addition of 48 µL of D2O buffer (100 mM NaCl (20 mM pH 6.0 Bis-Tris), 90.5% D2O (V/V) to 1 µL of protein and 1 µL of H2O. Exchange was terminated by the addition of ice-cold acidic quench buffer, resulting in a final concentration of 0.6 M guanidine-HCl and 0.9% FA post quench. Samples were immediately frozen in liquid nitrogen and stored at −80 °C. Fully deuterated samples were generated by first denaturing the protein in 2 M guanidine for 5 min at 20 °C. Following denaturing, 48 µL of D2O buffer was added to the denatured protein and allowed to incubate for 5 min at 20 °C before quenching. Samples were flash frozen and stored at −80 °C until injection onto the ultra-performance liquid chromatography (UPLC) system for proteolytic cleavage, peptide separation, and injection onto a QTOF for mass analysis.
Protein sample was rapidly thawed and injected onto a UPLC system kept in a cold box at 2 °C. The protein was run over two immobilized pepsin columns (Applied Biosystems; Porosyme 2-3131-00) and the peptides were collected onto a VanGuard Precolumn trap (Waters). The trap was eluted in line with an ACQUITY 1.7 μm particle, 100 × 1 mm^2 C18 UPLC column (Waters), using a gradient of 5–36% B (Buffer A 0.1% formic acid, Buffer B 100% acetonitrile) over 16 min. MS experiments were performed on an Impact QTOF (Bruker) and peptide identification was done by running tandem MS (MS/MS) experiments run in data-dependent acquisition mode. The resulting MS/MS dataset was analyzed using PEAKS7 (PEAKS) and a false discovery rate was set at 1% using a database of purified proteins and known contaminants. HDExaminer Software (Sierra Analytics) was used to automatically calculate the level of deuterium incorporation into each peptide. All peptides were manually inspected for correct charge state and presence of overlapping peptides. Deuteration levels were calculated using the centroid of the experimental isotope clusters, with correction for back exchange generated using the fully deuterated sample. The mass spectrometry proteomics data have been deposited to the ProteomeXchange Consortium via the PRIDE partner repository[31] with the dataset identifier PXD024981.

T1 sequence (J9W473 entry or part of it): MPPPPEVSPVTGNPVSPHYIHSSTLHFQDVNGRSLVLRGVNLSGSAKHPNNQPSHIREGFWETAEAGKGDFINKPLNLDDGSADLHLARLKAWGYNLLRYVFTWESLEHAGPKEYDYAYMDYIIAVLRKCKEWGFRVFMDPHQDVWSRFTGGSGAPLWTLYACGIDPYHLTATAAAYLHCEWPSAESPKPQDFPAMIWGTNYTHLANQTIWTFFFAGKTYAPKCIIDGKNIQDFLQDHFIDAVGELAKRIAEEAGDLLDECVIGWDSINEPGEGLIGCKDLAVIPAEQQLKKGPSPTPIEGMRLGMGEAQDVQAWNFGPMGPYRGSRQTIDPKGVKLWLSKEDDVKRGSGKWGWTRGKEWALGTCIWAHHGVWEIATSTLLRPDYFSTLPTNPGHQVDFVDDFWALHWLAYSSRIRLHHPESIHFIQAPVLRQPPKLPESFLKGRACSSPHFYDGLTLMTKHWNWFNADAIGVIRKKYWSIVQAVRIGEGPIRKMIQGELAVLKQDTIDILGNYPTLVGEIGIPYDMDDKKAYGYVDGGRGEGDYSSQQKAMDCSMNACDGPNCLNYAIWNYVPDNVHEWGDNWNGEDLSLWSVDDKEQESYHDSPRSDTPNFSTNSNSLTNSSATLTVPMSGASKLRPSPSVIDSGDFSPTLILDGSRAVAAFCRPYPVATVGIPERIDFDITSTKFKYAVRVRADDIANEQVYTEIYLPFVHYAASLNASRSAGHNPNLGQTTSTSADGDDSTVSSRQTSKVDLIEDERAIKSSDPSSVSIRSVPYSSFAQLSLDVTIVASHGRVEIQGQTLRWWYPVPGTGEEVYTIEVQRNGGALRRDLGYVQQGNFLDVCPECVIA

| Compound | % Deuterium incorporation, Average |
| --- | --- |
| RAIKSSDPSSVSIRSVPYSSF | 104.9% |
| RFTGGSGAPLWTL | 6.3% |
| RGVNLSGSAKHPNNQPSH | 44.0% |
| RGVNLSGSAKHPNNQPSHIREGF | 44.7% |
| RIRLHHPESIHF | 6.5% |
| RRDLGYV | 59.6% |
| RRDLGYVQQGN | 98.6% |
| RRDLGYVQQGNF | 98.0% |
| RSVPYSSF | 93.7% |
| RVFMDPHQDV | 5.4% |
| RVFMDPHQDVW | 3.4% |
| RVFMDPHQDVWSRF | 4.4% |
| RWWYPVPGTG | 40.0% |
| RWWYPVPGTGE | 36.9% |
| RWWYPVPGTGEEV | 29.8% |
| SADGDDSTVSSRQTSKVDL | 103.2% |
| SINEPGEGL | 13.9% |
| SIRSVPYSSF | 96.6% |
| SLEHAGPKEYD | 7.5% |
| SLEHAGPKEYDYA | 6.0% |
| SRFTGGSGAPLWTL | 5.6% |
| SRSAGHNPNLGQTTSTSADGDD | 102.7% |
| SRSAGHNPNLGQTTSTSADGDDSTVSSRQTSKVDL | 101.7% |
| SSRIRLHHPESIHF | 4.1% |
| STLPTNPGHQVD | 53.3% |

| Compound | % Deuterium incorporation, Average |
| --- | --- |
| STLPTNPGHQVDF | 73.1% |
| STNSNSLTNSSA | 102.0% |
| STNSNSLTNSSAT | 101.5% |
| STNSNSLTNSSATL | 102.1% |
| STNSNSLTNSSATLTVPMSG | 99.8% |
| STNSNSLTNSSATLTVPMSGASKLRPSPSV | 91.4% |
| STNSNSLTNSSATLTVPMSGASKLRPSPSVIDSGDFSPTL | 72.8% |
| STVSSRQTSKVDL | 98.6% |
| SYHDSPRSDTPNF | 96.9% |
| TGGSGAPLWTL | 5.6% |
| TIDPKGVKL | 7.9% |
| TIEVQRNGGAL | 26.9% |
| TLMTKHWNWFNA | 34.8% |
| TVGIPERIDF | 7.3% |
| TVPMSGASKLRPSPSV | 90.4% |
| TVPMSGASKLRPSPSVIDSGDFSPTL | 57.8% |
| TWESLEHAGPKEYD | 5.0% |
| VGEIGIPYDMD | 24.9% |
| VGEIGIPYDMDDKKAYGYVDGGRGEGDY | 21.5% |
| VGEIGIPYDMDDKKAYGYVDGGRGEGDYSSQQKAMD | 19.4% |
| VGELAKRIAEEAGDL | 5.8% |
| VGIPERIDF | 8.3% |
| VIGWDSINEPGEGL | 4.0% |
| VIGWDSINEPGEGLIG | 3.9% |
| VIGWDSINEPGEGLIGCKDL | 5.1% |

| Compound | % Deuterium incorporation, Average |
| --- | --- |
| VIRKKYWSIVQ | 49.5% |
| VIRKKYWSIVQA | 46.8% |
| VLKQDTIDILGNYPTL | 10.8% |
| VNLSGSAKHPNNQPSHIREGF | 45.8% |
| VQAWNFGPMGPYRGSRQTIDPKGVKL | 24.9% |
| VQRNGGAL | 39.7% |
| VQRNGGALRRDLG | 72.0% |
| VRIGEGPIRKMIQGEL | 21.0% |
| VSIRSVPYSSF | 97.9% |
| VTIVASHGRVEIQGQTL | 23.2% |
| VTIVASHGRVEIQGQTLRWWYPVPGTGE | 23.1% |
| VTIVASHGRVEIQGQTLRWWYPVPGTGEE | 22.0% |
| VTIVASHGRVEIQGQTLRWWYPVPGTGEEV | 18.9% |
| VTIVASHGRVEIQGQTLRWWYPVPGTGEEVY | 18.9% |
| VWEIATSTLLRPDYFS | 21.9% |
| WAHHGVWE | 1.5% |
| WAHHGVWEI | 2.5% |
| WALGTCI | 3.3% |
| WALGTCIWAHHGVWE | 1.7% |
| WALHWLAY | 4.9% |
| WESLEHAGPKEYD | 6.6% |
| WESLEHAGPKEYDY | 7.1% |
| WESLEHAGPKEYDYA | 8.8% |
| WETAEAGKGDF | 47.7% |
| WLSKEDDVKRGSGKWGWTRGKE | 27.6% |

| Compound | % Deuterium incorporation, Average |
| --- | --- |
| WLSKEDDVKRGSGKWGWTRGKEWALGTCI | 17.4% |
| WLSKEDDVKRGSGKWGWTRGKEWALGTCIWAHHGVWE | 11.7% |
| WNFGPMGPYRGSRQ | 53.6% |
| WNFGPMGPYRGSRQTIDPKG | 43.4% |
| WNFGPMGPYRGSRQTIDPKGVKL | 28.6% |
| WSRFTGGSGAPLWTL | 5.9% |
| WSVDDKEQES | 70.6% |
| WSVDDKEQESY | 71.0% |
| WSVDDKEQESYHDSPRSDTPNF | 83.4% |
| YACGIDPYHLTA | 15.5% |
| YACGIDPYHLTATA | 18.2% |
| YAIWNYVPDNVHE | 15.0% |
| YAIWNYVPDNVHEWGDN | 15.4% |
| YLHCEWPSAESPKPQDF | 52.9% |
| YLHCEWPSAESPKPQDFPAM | 56.9% |
| YTHLANQ | 4.9% |
| YTHLANQTIWTF | 3.6% |
| YTHLANQTIWTFF | 3.1% |
| YVDGGRGEGD | 72.5% |
| YVDGGRGEGDY | 69.5% |
| YVDGGRGEGDYSSQ | 64.9% |
| YVDGGRGEGDYSSQQ | 65.8% |
| YVDGGRGEGDYSSQQKAMD | 51.4% |
| YVQQGNF | 102.8% |
| YVQQGNFL | 101.5% |

target: T1, C. neoformans Sgl1; experiment: Sgl1 inhibition with res-glp substrate (HTS, single-compound dose-response); format: biochemical; details: res-glp as substrate (100 µM), primary screen; read-out: IC50 against Sgl1
Method: Resorufin-3β-D-glucopyranoside (res-glp, Sigma-Aldrich) enzyme kinetic assays were performed according to methods described by Urban et al.[16] with modifications. Reaction buffer contained 50 mM citric acid, 176 mM K2HPO4, pH 6, 0.01% Tween-20, and 10 mM sodium taurocholate. The reactions were carried out in black 96-well plates using 20 ng of enzyme with 100 μM res-glp substrate. In all, 10 μL/well of res-glp substrate was added to each well and the reaction was initiated by adding 20 μL enzyme (20 ng). After incubation at 37 °C for 30–40 min, the fluorescence was read at an excitation of 570 (±10) nm and an emission of 610 (±10) nm on a VersaMax™ Microplate Reader from Molecular Devices. A standard curve was prepared with serial dilutions of the free fluorophore, resorufin, in the same volume of assay buffer.
A ChemBridge DIVERSet-CL library (San Diego, CA) containing 50,000 compounds was screened to identify small molecules that inhibit C. neoformans Sgl1. The library was prepared in a 96-well plate format containing a cocktail of 10 compounds per well at 1 mM each in 100% DMSO. The cocktail plates were first diluted to 100 μM each (1:10 dilution in Dulbecco’s phosphate-buffered saline, DPBS) resulting in 10% DMSO. In order to screen the compound cocktails at […] in 1% DMSO in a final reaction volume of 30 μL an aliquot of 3 μL was added to 17 μL of buffer containing 20 ng of enzyme and the reaction was started adding 10 μL of 100 μM res-glp. A negative control without enzyme and positive controls with and without DMSO were prepared. The plates were incubated at 37 °C for 40 min.
The Z′-factor was used for the assessment of the efficiency of the HTS assay for each individual plate. Values greater than 0.5 has been considered as an indicator of an excellent screening assay quality.

| Compound | IC50 |
| --- | --- |
| O=C(c1ccc(-c2ccccc2)c(F)c1)C1CCCN(C2CCSCC2)C1 (stereo not shown) [Hit 2] | 4 µM |
| CC(C)Oc1cccc(C(=O)C2CCCN(C3CCSCC3)C2)c1 (stereo not shown) [Hit 3] | 4 µM |
| Cc1cc(NCc2ccc3[nH]c(C)c(C)c3c2)nc(N)n1 [Hit 4] | 4 µM |
| CCC(Sc1nc2ccccc2o1)C(=O)N1CCc2[nH]cnc2C1 (stereo not shown) [Hit 8] | 4 µM |
| CN(C)CCN(Cc1ccsc1)Cc1ccc2nonc2c1 [Hit 11] | 4 µM |
| COc1cc(CNCc2cc(C)cc3c(C)c(C)[nH]c23)cc2c1OCO2 [Hit 12] | 2 µM |
